# Source: patent US6685912B2, “Post-labeling stabilization of radiolabeled proteins and peptides” (Rhomed Incorporated, priority 1996, dated 2004)
# How the values were obtained:
# Format in all cases: physicochemical
# [1] = Cysteine displacement of Re-188 from Re-188-RC-160 (ITLC); details: addition of the ascorbate post-labeling
# Protocol: Radiolabeling kits were prepared using aseptic techniques, with each kit prepared in a 10 ml serum vial using a 2 ml liquid fill. The liquid fill contained 200 μg of RC-160 peptide in 45 mM sodium potassium tartrate, 10 mM potassium hydrogen phthalate buffer, pH 5.0, in 5 mM stannous tartrate with 1% maltose added as a freeze-drying excipient. Each kit contained a maximum of 1.19 μg of tin. After filling, the vials were lyophilized, the head space gas filled with nitrogen, and the vials stoppered and crimped. Lyophilized vials were then stored refrigerated at 2-80C. To label a kit, 4-5 ml of 188Re-perrhenate solution containing 10-100 mCi was added to the kits, and the kits then heated in a boiling water bath for 30-45 minutes. Following a brief cooling period, 2 ml of ascorbic acid for Injection, U.S.P., was added to the labeled kit through a 0.22 micron filter. […] The amount of displacement was expressed as % of total radioactivity at the solvent front. […] Selected organs as shown in FIG. 4 were resected and weighed and the associated radioactivity was determined as a percentage of injected dose pr gram of tissue. The percent dose from blood, bone and muscle was calculated assuming 7, 8.2 and 40% of total body weight for these tissues. […]
# [2] = Post-labeling stability of radiolabeled RC-160 (uncoupling of isotope) by TLC and RP-HPLC
# Protocol: (§1) Radiolabeling kits were prepared using aseptic techniques, with each kit prepared in a 10 ml serum vial using a 2 ml liquid fill. The liquid fill contained 200 μg of RC-160 peptide in 45 mM sodium potassium tartrate, 10 mM potassium hydrogen phthalate buffer, pH 5.0, in 5 mM stannous tartrate with 1% maltose added as a freeze-drying excipient. Each kit contained a maximum of 1.19 μg of tin. After filling, the vials were lyophilized, the head space gas filled with nitrogen, and the vials stoppered and crimped. Lyophilized vials were then stored refrigerated at 2-80C. To label a kit, 4-5 ml of 188Re-perrhenate solution containing 10-100 mCi was added to the kits, and the kits then heated in a boiling water bath for 30-45 minutes. Following a brief cooling period, 2 ml of ascorbic acid for Injection, U.S.P., was added to the labeled kit through a 0.22 micron filter. Two types of parenteral ascorbate were used with similar results, Ascorbic Acid for Injection, U.S.P., 500 mg/2 ml, and Ascorvit™ (a preparation of ascorbate) 100 mg (Jenapharm, Germany). In this study, RC-160 was radiolabeled at pH 5.0 for 30 minutes at 90° C. and ascorbate was added postlabeling. The temperature effect is shown in FIGS. 2A and 2B: 19 minutes for 37° C. and 21 minutes for 900C. Also shown in FIG. 1B is an elution profile of Re-188-RC 160 from a C18 column using a step-gradient of acidified ethenol. […] FIG. 6. […] FIG. 7 and FIGS. 1A and 1B. […] Briefly, aliquots of 100 μl cysteine dissolved in phosphate buffer saline (pH 7.4 with 1 M NaOH) were diluted in separate microfuge tubes to result in a doubling dilution. 100 μl of Re188-RC-160 was added to each tube and mixed by inversion. The samples were incubated at 45 minutes at 37° C. or 90° C. A 10 μl aliquot of each sample was then spotted on heat-treated ITLC strip and chromatographed in PBS, pH 7.4 until the solvent was 0.5 cm from the strip top. The amount of displacement was expressed as % of total radioactivity at the solvent front. The results for two experiments conducted respectively at 37° and 90° C. are shown at FIG. 3. In a related manner, comparative biodistribution profiles of Re-188-RC-160 at 2 hours post injection into the tail vein of adult, female BALB/c mice (≈25 g weight) (n≧5/group) with each animal receiving 0.2 ml containing approximately 4 μCi. Selected organs as shown in FIG. 4 were resected and weighed and the associated radioactivity was determined as a percentage of injected dose pr gram of tissue. The percent dose from blood, bone and muscle was calculated assuming 7, 8.2 and 40% of total body weight for these tissues. 37° C. and 90° C. were the two temperatures at which radio labeling was performed.
# [3] = Elution of Re-188-RC-160 from C18 SepPak columns (step-gradient of acidified ethanol) after adding post-labeling compounds
# Protocol: FIG. 1B is an elution profile of Re-188-RC-160 from a C18-SepPak column using a step-gradient of acidified ethanol.
# as §1
# [4] = Labeling efficiency of Re-188-RC-160 with ascorbic acid present during labeling (C18 SepPak, RP-HPLC, TLC)
# From the text: The results obtained by analytical RP-HPLC were confirmed by TLC studies and by isocratic elutions from C-18 SepPak columns. […] The RP-HPLC results were confirmed by TLC. […] The addition of ascorbate, or ascorbate/sulfite solutions, maximized the reduction of the peptide RC-160, which is present in excess, without compromising ^188Re-RC-160. The radiolabeling kit could be formulated with an excess of stannous ions and RC-160 to accommodate a variety of labeling situations. In the presence of ^188Re, the RC-160 and stannous ions interact to result in what is believed to be metal-cyclized ^188Re-RC-160. […] Since ^188Re is produced essentially carrier-free from a 188W/^188Re generator, it is hypothesized that excess stannous ions will reduce the RC-160 not complexed to ^188Re. […] The net result is a stable radiolabeled peptide with a very high specific activity.
# [5] = Elution of Re-188-RC-160 from C18 SepPak columns (step-gradient of acidified ethanol) after adding post-labeling compounds; remark: listed apart in the source
# [6] = post-labeling Ascorbate for Injection, USP
# [7] = post-labeling Ascorvit formulation
# [8] = post-labeling ascorbate (50 mg/ml, pH 6.0)
# [9] = post-labeling sodium bisulfite (1 mg/ml, pH 5.5)
# [10] = post-labeling sodium sulfite (1 mg/ml, pH 7.4)
# [11] = NO ASCORBATE during labeling, 20 mCi Re-188
# [12] = PLUS ASCORBATE: 400 μg ascorbic acid introduced along with the Re-188, 20 mCi
substance,measurement,setting,value
"Re-188-RC-160: RC-160, cyclic somatostatin analogue D-Phe-Cys-Tyr-D-Trp-Lys-Val-Cys-Trp-NH2, radiolabeled with 188Re using stannous kit",Re-peptide bond strength (cysteine displacement),[1],not altered
same,stabilization post-labeling,[2]; 50 mg/ml ascorbate compared with 250 mg/ml of ascorbate,yielded the same results
same,free rhenium in HPLC profile,"[2]; 30 hours post-labeling, 65 mCi of 188Re, ascorbate added after labeling",very little free rhenium could be found
same,stability post-labeling,"[2]; ascorbate not added, TLC, confirmed by RP-HPLC",stable for only up to two hours post-labeling
same,stability post-labeling (uncoupling of 188Re from the peptide),[2]; post-labeling addition of ascorbate,essentially eliminate the uncoupling and stabilize
same,stabilization post-labeling,"[2]; sodium sulfite (1 mg/ml pH 7.4), sodium bisulfite (1 mg/ml, pH 5.5), or mixtures of ascorbate with sodium sulfite, sodium bisulfite or EDTA",also effective in stabilizing
same,"% of total radioactivity assayed, 0-20% ethanol fraction",[3]; [6],0.7%
same,"% of total radioactivity assayed, 40-60% ethanol fraction",[3]; [6],91.5%
same,"% of total radioactivity assayed, 80-100% ethanol fraction",[3]; [6],1.3%
same,"% of total radioactivity assayed, retained on column",[3]; [6],6.6%
same,"% of total radioactivity assayed, 0-20% ethanol fraction",[3]; [7],1.0%
same,"% of total radioactivity assayed, 40-60% ethanol fraction",[3]; [7],94.0%
same,"% of total radioactivity assayed, 80-100% ethanol fraction",[3]; [7],1.8%
same,"% of total radioactivity assayed, retained on column",[3]; [7],3.3%
same,"% of total radioactivity assayed, 0-20% ethanol fraction",[3]; post-labeling SALINE,0.8%
same,"% of total radioactivity assayed, 40-60% ethanol fraction",[3]; post-labeling SALINE,85.4%
same,"% of total radioactivity assayed, retained on column",[3]; post-labeling SALINE,9.7%
same,"% of total radioactivity assayed, 0-20% ethanol fraction",[3]; [8],0.7%
same,"% of total radioactivity assayed, 40-60% ethanol fraction",[3]; [8],96.4%
same,"% of total radioactivity assayed, 80-100% ethanol fraction",[3]; [8],0.9%
same,"% of total radioactivity assayed, retained on column",[3]; [8],1.8%
same,"% of total radioactivity assayed, 0-20% ethanol fraction",[3]; [9],1.0%
same,"% of total radioactivity assayed, 0-20% ethanol fraction",[3]; [10],7.0%
same,"% of total radioactivity assayed, retained on column",[3]; [10],3.5%
same,% of total radioactivity,[4]; [11],2.1%
same,"% of total radioactivity, 10% ethanol",[4]; [11],0.9%
same,"% of total radioactivity, 85% ethanol",[4]; [11],97.0%
same,% of total radioactivity,[4]; [12],1.4%
same,"% of total radioactivity, 10% ethanol",[4]; [12],52.4%
same,"% of total radioactivity, 85% ethanol",[4]; [12],46.2%
same,"% of total radioactivity assayed, 80-100% ethanol fraction",[5]; post-labeling SALINE,4.0%
same,"% of total radioactivity assayed, 40-60% ethanol fraction",[5]; [9],94.0%
same,"% of total radioactivity assayed, 80-100% ethanol fraction",[5]; [9],1.8%
same,"% of total radioactivity assayed, retained on column",[5]; [9],3.3%
same,"% of total radioactivity assayed, 40-60% ethanol fraction",[5]; [10],35.8%
same,"% of total radioactivity assayed, 80-100% ethanol fraction",[5]; [10],3.8%
